Data as given in publication PMC3650080, “Structural Insights into the UbiD Protein Family from the Crystal Structure of PA0254 from Pseudomonas aeruginosa” (PLoS ONE, 2013).

Experiments:
[1] = biological target: the molecule itself; assay: crystal structure; two crystal forms of His6-PA0254: P2(1) (1 M (NH4)2SO4, 0.1 M Bis-Tris pH 5.5, 1% PEG 3350; 2.3 Å, four subunits in the asymmetric unit) and P3(2)21 (0.1 M Hepes pH 7.5, 0.2 M MgCl2, 10% PEG 400; 1.95 Å, three subunits); dimer told from crystal packing and PISA
[2] = biological target: the molecule itself; assay: SEC; superdex-200 column (GE-Healthcare) calibrated with Ribonuclease-A, Chymotrypsinogen-A, Ovalbumin, Albumin, Catalase and Ferretin; absorbance at 280 nm

B1: PA0254 from Pseudomonas aeruginosa (UbiD-like protein) (enzyme, Pseudomonas aeruginosa PAO1, UniProt Q9I6N5 1-496, looked up)
chain: MNRSALDFRHFVDHLRRQGDLVDVHTEVDANLEIGAITRRVYERRAPAPLFHNIRDSLPGARVLGAPAGLRADRARAHSRLALHFGLPEHSGPRDIVAMLRAAMRAEPIAPRRLERGPVQENVWLGEQVDLTRFPVPLLHEQDGGRYFGTYGFHVVQTPDGSWDSWSVGRLMLVDRNTLAGPTIPTQHIGIIREQWRRLGKPTPWAMALGAPPAALAAAGMPLPEGVSEAGYVGALVGEPVEVVRTQTNGLWVPANTEIVLEGEISLDETALEGPMGEYHGYSFPIGKPQPLFHVHALSFRDQPILPICVAGTPPEENHTIWGTMISAQLLDVAQNAGLPVDMVWCSYEAATCWAVLSIDVQRLAALGTDAAAFAARVAETVFGSHAGHLVPKLILVGNDIDVTEIDQVVWALATRAHPLHDHFAFPQIRDFPMVPYLDAEDKARGSGGRLVINCLYPEQFAGQMRAATASFRHAYPTALRRRVEERWSDYGFGDA
notes: PA0254, UbiD-like putative 3-polyprenyl-4-hydroxybenzoate decarboxylase of Pseudomonas aeruginosa PAO1; full-length gene (residues 1-496 modelled); calculated mass of His6-PA0254 57053 Da per subunit; The TEV-cleavable His6 tag was not removed (incomplete cleavage); tag residues -7 to 0 are partly seen in the trigonal crystal; A SeMet-substituted form was used for phasing only; also called UbiD2; …
[1]
  stoichiometry N: 2

B2: UbiD from P. aeruginosa (PA5237) (enzyme, Pseudomonas aeruginosa PAO1, UniProt Q9HTV3 1-488, looked up)
chain: MTFKDLRDFIAQLEQRGALKRIQVPISPVLEMTEVCDRTLRAKGPALLFEKPTGFDMPVLGNLFGTPERVALGMGAEDVGALREIGKLLAQLKEPEPPKGLKDAWAKLPMYRKVLSMAPKVLKDAPCQEVVEEGEDVDLGRLPVQTCWPGDVGPLITWGLTVTRGPNKERQNLGIYRQQVIGRNKVIMRWLSHRGGALDYREWCQKHPGQPYPVAVALGADPATILGAVTPVPDTLSEYAFAGLLRGHRTELVKCRGSDLQVPASAEIVLEGVIHPGEMADEGPYGDHTGYYNEVDRFPVFTVERVTRRQKPIYHSTYTGRPPDEPAILGVALNEVFVPILQKQFPEIVDFYLPPEGCSYRMAVVTMKKQYPGHAKRVMLGVWSFLRQFMYTKFVIVTDDDIDARDWNDVIWAITTRMDPKRDTVMIDNTPIDYLDFASPVSGLGSKMGLDATHKWPGETSREWGRAIVKDEAVTRRIDALWSSLGID
notes: PA5237, UbiD (3-polyprenyl-4-hydroxybenzoate decarboxylase) of Pseudomonas aeruginosa PAO1; construct not described; also called UbiD1; bona fide UbiD
[2]
  stoichiometry N: 6
